In general, Kd refers to a measure of binding affinity in units of concentration.

The source of these data is publication PMC2323325, “Conserved Regulation of MAP Kinase Expression by PUF RNA-Binding Proteins”.

One data set has as its target T1, FBF-2 (Caenorhabditis elegans, UniProt Q09312 162-566).
T1 sequence: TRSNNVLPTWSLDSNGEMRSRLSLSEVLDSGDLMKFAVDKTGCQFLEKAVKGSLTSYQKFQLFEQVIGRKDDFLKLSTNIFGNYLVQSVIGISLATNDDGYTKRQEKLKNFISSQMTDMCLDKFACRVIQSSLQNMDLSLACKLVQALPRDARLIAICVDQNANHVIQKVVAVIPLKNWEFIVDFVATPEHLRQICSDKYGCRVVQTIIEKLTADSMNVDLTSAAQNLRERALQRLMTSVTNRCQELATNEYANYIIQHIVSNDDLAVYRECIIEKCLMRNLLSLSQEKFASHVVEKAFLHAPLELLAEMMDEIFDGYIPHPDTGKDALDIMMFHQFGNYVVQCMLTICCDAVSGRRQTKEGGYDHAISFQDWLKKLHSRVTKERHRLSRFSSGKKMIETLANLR
Put plainly: EMSA; Not stated; gel shift assays performed as described in ref 49. Conditions: protein: recombinant. A general note: In EMSA bound probe runs differently from free probe, usually more slowly.

The target in another data set is PUM2 (Homo sapiens, UniProt Q8TB72 706-1048). The description is as above. Conditions: protein: recombinant.
Sequence of PUM2 (Q8TB72 706-1048): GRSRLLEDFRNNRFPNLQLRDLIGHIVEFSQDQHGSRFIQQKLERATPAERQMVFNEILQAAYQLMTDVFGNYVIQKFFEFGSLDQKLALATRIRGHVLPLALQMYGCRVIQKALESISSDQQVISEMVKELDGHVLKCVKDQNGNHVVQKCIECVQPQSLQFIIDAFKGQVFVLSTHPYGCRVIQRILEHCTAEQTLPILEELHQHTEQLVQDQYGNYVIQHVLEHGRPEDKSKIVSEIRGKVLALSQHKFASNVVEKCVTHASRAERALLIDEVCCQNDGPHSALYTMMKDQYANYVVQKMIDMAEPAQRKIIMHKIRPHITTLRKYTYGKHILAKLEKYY

For AGUUUCUUUUUCGAUGUAUCAUAAUCCA (ssRNA) [mpk-1 FBEa], the Kd with FBF-2 is approximately 93 nM.

On to AGUAUAUUUGAAACUGUAAAUAUGUUUG (ssRNA) [p38alpha NREa], for which, in the data set with PUM2, the binding result is recorded as “binds”.

UAUUUUACGUAUUUACAAAUAUAUUCAU (ssRNA) [mpk-1 FBEb*]: in the data set with FBF-2, the binding result was “no binding”.

As for AGGAGAGAAGAAAGUGUAGAUAGUUAAA (ssRNA) [p38alpha NREb], in the data set with PUM2, the binding result is on record as “binds”.

Take UUCAUGAAAAUAAAUGUACAUCUUCUAU (ssRNA) [Erk2 NRE]: the binding result with PUM2 was “binds”.

With AGUUUCUUUUUCGAACAAUCAUAAUCCA (ssRNA) [mpk-1 FBEa*], the binding result in the data set with FBF-2 was “no binding”.

As for UAUUUUACGUAUUUUGUAAUAUAUUCAU (ssRNA) [mpk-1 FBEb], the dissociation constant Kd with FBF-2 was approximately 320 nM.
